Measured values as given in patent US20240101959A1, “USE OF IL-2R-BETA-GAMMA AGONIST PEPTIDES IN CELL MANUFACTURING” (MEDIKINE, INC., priority 2022, published 2024).
No end group written: not given here.

T1: hu-IL-2Rβ subunit (human, UniProt P14784 27-240, limits assumed)
T1 construct: also called human interleukin-2 receptor subunit β; CD122
T1 sequence (looked up): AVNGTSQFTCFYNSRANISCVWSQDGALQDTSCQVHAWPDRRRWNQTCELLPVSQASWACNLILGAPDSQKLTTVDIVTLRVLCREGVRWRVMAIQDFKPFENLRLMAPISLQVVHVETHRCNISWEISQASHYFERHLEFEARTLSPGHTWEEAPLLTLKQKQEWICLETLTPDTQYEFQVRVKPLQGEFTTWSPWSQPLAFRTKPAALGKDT


Biological target: T1, hu-IL-2Rβ subunit
Assay: phage ELISA competition assay

IC50 [µM]	Binder
< 100	RSLVDCFLVKVGDLCDFFNW [SEQ ID NO 530]
< 100	NWFHDCFLARVGDLCDLFLD [SEQ ID NO 543]
< 100	SYLCWLDHWGVICEED (not fully specified (bridges); cysteine pairing not given here) [SEQ ID NO 546]
< 100	SEQWWPCWIARLGELCDLDRELSE [SEQ ID NO 116]
< 100	KWVHDCFLAKVGDVCDLFVV [SEQ ID NO 529]
< 100	NRRWYPCWMAQLGELCDLDSRP [SEQ ID NO 119]
< 100	QFVKDCFLAQVGDLCELFLW [SEQ ID NO 538]
< 100	WPCWALGELCDLD [SEQ ID NO 558]
< 100	QMVWWDCWSTQEGPVCELNWTA [SEQ ID NO 548]
< 100	VHDCFIAQVGDLCDLF [SEQ ID NO 556]
< 100	EFFHDCYVARVGELCDLFGW [SEQ ID NO 545]
< 10	VQYKKCWMAQLGDLCELDPS (not fully specified (bridges); cysteine pairing not given here) [SEQ ID NO 619]
< 100	HIFHDCFIAKVGDLCDLFHS [SEQ ID NO 573]
< 100	WTCWLTQLGYDCNLDVVDQSLG [SEQ ID NO 550]
< 100	RYLYDCFLALVGDLCVKFHQ [SEQ ID NO 531]
< 100	EHFHDCFFAKVGDLCDIFGN [SEQ ID NO 571]
< 100	EGFHDCFFAKVGDLCDIFGH [SEQ ID NO 570]
< 100	EHFHDCFFAKVGDLCDKFGQ [SEQ ID NO 572]
< 100	THVHDCFLAKVGDLCDLFIV [SEQ ID NO 535]
< 100	TRRWYPCYLAKLGELCDLFEGGTR [SEQ ID NO 115]
< 100	WPCWLGELCDLD [SEQ ID NO 559]
< 100	LVDCFKVKVGELCDLF (not fully specified (bridges); cysteine pairing not given here) [SEQ ID NO 555]
< 100	EIFKDCLFANVGELCEIFPS [SEQ ID NO 542]
< 100	AFFHDCFFAKAGDLCDFFDD [SEQ ID NO 568]

IC50 [µM]	Binder
< 100	KSNFFPCWIAQLGQLCDLEPET [SEQ ID NO 121]
< 100	DFFHDCFFAKVGDLCDFFFG [SEQ ID NO 569]
< 100	RYVHDCFIAQVGDLCDLFLH [SEQ ID NO 528]
< 10	YPCHMAQLGELCDLWSWGDI (not fully specified (bridges); cysteine pairing not given here) [SEQ ID NO 620]
< 100	HWFLDCFLANVGDLCDFFGN [SEQ ID NO 540]
< 10	YPCWMAQLGELCDL [SEQ ID NO 621]
< 100	WGKLVRDCFLAKVGDLCDLFLW [SEQ ID NO 534]
< 100	WYTCMMDWLGVHCELE [SEQ ID NO 547]
< 100	EFWGWQCWQEPLGWSCDLEWMD [SEQ ID NO 552]
< 100	HWVRDCFLAKVGELCDLFLW [SEQ ID NO 536]
< 100	WYPCWVAQLGEICDLEMTGPDSWYP [SEQ ID NO 117]
< 100	WYPCWGELCDLD [SEQ ID NO 560]
< 100	YWCSVWQLGSVCEMNNEETQ [SEQ ID NO 549]
< 100	AHFYDCFWAKAGELCDLWPS [SEQ ID NO 532]
< 100	QDGWLPCWMAQLGELCDLEYKR [SEQ ID NO 118]
< 100	NWLPDCLFANVGELCDIFPW [SEQ ID NO 541]
< 100	DGSWYTCWFTQLGEWCEQDDAK [SEQ ID NO 551]
< 100	ELLVDCFKVKVGELCDLFFG [SEQ ID NO 527]
< 100	FYPCWMANLGELCDLDFLRELN [SEQ ID NO 122]
< 100	WYPCYRARLGELCDLD [SEQ ID NO 82]
< 100	DWLPDCYFANVGDLCSLFGS [SEQ ID NO 539]
< 100	HGILDCYFAKVGELCELFDW [SEQ ID NO 537]
< 100	WPCWAALGELCDLD [SEQ ID NO 557]
< 100	YSFKDCYFAKVGELCELFLW [SEQ ID NO 544]
